Reference: publication PMC6450878

Legend:
[1] = target: eGFP-talin1 (human talin1) (UniProt Q9Y490); experiment: OPTIC assay (microscopy of GFP-talin1 recruitment to clustered CEACAM3-integrin fusion proteins in 293T cells); conditions: 293 T cells co-transfected with CEACAM3-integrin fusion constructs and GFP-talin1, infected for 1 h with Pacific Blue-labeled Ngo, read off a plot
[2] = target: CEACAM3-integrin β3 fusion construct (CEA3-ITGB3) (human) (UniProt P05106); experiment: OPTIC (Opa protein triggered integrin clustering; recruitment of a fluorescent protein to the clustered chimeric receptor, confocal microscopy); 293T cells co-transfected with CEA3-ΔCT or a CEA3-ITGB chimera and the protein of interest fused to eGFP or mCherry, seeded on poly-L-lysine; infected 1 h with Pacific Blue-stained Opa52-expressing N. gonorrhoeae at MOI 20; fixed, stained for CEACAM3; R = maximum fluorescence at the clustered chimera / mean fluorescence of the cell; R > 2 defined as positive recruitment; n = 60 cells
[3] = target: CEACAM3-integrin β1 fusion construct (CEA3-ITGB1) (human) (UniProt P05556); experiment: as above
[4] = target: CEACAM3-integrin β5 fusion construct (CEA3-ITGB5) (human) (UniProt P18084); experiment: as above
[5] = target: CEA3-ITGB1 C.ow (CEACAM3 fused to the cytoplasmic domain of Capsaspora owczarzaki integrin β homologue ITGB1 C.ow) (human | Capsaspora owczarzaki); experiment: as above
[6] = target: CEACAM3-integrin β2 fusion construct (CEA3-ITGB2) (human) (UniProt P05107); experiment: as above
[7] = target: CEA3-ITGB2 C.ow (CEACAM3 fused to the cytoplasmic domain of Capsaspora owczarzaki integrin β homologue ITGB2 C.ow) (human | Capsaspora owczarzaki); experiment: as above
[8] = target: CEA3-ITGB1 Y783A (human) (UniProt P05556); experiment: as above

Chain of UniProt Q9Y490 (Q9Y490 whole entry, looked up, the tested form may be a part): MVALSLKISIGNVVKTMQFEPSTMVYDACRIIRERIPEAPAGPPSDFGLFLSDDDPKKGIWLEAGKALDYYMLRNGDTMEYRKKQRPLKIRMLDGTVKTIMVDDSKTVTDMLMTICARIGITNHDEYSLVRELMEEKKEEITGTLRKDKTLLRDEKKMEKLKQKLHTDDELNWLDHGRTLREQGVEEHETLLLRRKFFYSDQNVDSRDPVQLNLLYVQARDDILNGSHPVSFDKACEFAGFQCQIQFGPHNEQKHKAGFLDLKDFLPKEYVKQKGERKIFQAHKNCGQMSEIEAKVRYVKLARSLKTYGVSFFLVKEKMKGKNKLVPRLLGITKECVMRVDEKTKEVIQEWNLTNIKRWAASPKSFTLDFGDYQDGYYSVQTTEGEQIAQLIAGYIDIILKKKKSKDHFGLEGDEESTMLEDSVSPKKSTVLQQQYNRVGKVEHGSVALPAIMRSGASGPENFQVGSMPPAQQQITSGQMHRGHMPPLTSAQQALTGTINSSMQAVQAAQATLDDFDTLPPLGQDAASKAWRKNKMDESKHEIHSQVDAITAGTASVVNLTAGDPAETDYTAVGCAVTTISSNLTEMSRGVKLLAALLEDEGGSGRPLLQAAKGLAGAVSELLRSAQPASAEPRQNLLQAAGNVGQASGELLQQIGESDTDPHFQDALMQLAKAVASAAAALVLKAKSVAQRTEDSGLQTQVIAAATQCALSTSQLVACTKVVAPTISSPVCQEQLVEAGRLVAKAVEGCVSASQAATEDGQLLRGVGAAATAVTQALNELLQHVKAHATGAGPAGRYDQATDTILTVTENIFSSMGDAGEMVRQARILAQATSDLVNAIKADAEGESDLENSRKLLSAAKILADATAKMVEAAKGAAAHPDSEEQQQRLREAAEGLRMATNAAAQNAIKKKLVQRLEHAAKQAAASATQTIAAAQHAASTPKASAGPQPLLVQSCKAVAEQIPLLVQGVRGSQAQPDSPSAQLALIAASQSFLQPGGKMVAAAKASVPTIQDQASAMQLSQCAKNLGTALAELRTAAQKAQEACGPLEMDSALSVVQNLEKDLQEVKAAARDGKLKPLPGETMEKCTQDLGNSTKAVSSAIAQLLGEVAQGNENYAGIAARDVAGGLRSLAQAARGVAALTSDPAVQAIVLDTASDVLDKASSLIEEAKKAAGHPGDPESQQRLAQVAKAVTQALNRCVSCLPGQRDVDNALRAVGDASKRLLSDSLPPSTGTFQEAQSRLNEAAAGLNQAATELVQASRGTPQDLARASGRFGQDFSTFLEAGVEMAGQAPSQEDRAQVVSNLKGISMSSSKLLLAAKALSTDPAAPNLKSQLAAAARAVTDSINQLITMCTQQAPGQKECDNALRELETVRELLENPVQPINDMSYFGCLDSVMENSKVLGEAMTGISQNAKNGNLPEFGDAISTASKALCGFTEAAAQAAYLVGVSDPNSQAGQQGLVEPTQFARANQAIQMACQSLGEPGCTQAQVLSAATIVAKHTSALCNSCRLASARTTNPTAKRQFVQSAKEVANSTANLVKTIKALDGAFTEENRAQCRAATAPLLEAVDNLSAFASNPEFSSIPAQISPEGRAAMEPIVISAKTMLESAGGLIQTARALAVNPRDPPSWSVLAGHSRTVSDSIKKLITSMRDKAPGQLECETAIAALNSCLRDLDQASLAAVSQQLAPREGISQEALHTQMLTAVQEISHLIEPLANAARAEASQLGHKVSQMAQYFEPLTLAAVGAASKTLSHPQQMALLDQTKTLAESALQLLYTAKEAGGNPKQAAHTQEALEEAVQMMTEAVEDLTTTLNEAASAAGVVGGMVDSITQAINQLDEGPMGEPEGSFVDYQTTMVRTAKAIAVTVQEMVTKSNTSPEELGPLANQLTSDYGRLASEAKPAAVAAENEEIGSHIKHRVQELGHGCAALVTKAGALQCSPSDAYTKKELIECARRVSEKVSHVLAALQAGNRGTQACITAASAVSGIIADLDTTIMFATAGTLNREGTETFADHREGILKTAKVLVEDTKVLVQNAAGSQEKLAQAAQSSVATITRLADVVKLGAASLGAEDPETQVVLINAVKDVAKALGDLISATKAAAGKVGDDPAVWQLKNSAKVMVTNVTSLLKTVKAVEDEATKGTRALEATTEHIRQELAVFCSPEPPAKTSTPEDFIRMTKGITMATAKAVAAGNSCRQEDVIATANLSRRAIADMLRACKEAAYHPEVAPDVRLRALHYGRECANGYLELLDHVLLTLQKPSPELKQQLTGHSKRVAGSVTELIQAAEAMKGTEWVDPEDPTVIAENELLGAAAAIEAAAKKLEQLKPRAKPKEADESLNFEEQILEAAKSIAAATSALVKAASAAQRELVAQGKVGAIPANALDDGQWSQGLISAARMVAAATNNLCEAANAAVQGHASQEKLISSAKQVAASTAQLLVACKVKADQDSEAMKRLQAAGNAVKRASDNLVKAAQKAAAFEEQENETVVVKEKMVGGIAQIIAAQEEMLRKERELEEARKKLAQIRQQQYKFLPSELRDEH

Row | recruitment ratio R (mean) [2] | recruitment ratio R (mean) [3] | percent of cells with R >= 2 [3] | Substance | other results
1 |  |  |  | CEA3-ITGB2 C.ow (CEACAM3 fused to the cytoplasmic domain of Capsaspora owczarzaki integrin β homologue ITGB2 C.ow) F1038A | other: talin recruitment ratio R ([1]; n = 60 cells from three …, parent: est. 2.6): 2.2; other: percentage of cells with talin recruitment R ≥ 2 ([1]; parent: est. 64): 59%
2 | 2.4 | 3.9 |  | eGFP-tagged human kindlin-2 (from UniProt Q96AC1 1-680) (natural protein) | 
3 | 2.57 | 2.92 |  | eGFP-tagged paxillin (from UniProt P49023 1-591) (natural protein) | 
4 | 3.78 | 3.41 | 85% | eGFP-talin1 (human talin1) (from UniProt Q9Y490 1-2541) (natural protein) | percent of cells with R >= 2 [2]: 85%; percent of cells with R >= 2 [4]: 62%; recruitment ratio R (mean) [4]: 2.1; recruitment ratio R [5]: > 2; percent of cells with R >= 2 [6]: 85%; recruitment ratio R [7]: > 2
5 |  | 1.5 |  | mCherry | 
6 |  | 2.84 | 85% | mCherry-talin1 (human talin1) (from UniProt Q9Y490 1-2541) (natural protein) | percent of cells with R >= 2 [8]: 17%; recruitment ratio R (mean) [8]: 1.8
